Patent USRE50880 (Kymab Limited, dated 2026)

Molecular target: Recombinant Human OX40L (Leader sequence, Isoleucine Zipper and FLAG Sequence Included) (human)
Assay: cell-based or functional assay

Chain of Recombinant Human OX40L (Leader sequence, Isoleucine Zipper and FLAG Sequence Included) (human) (chain, as listed by the source limits assumed): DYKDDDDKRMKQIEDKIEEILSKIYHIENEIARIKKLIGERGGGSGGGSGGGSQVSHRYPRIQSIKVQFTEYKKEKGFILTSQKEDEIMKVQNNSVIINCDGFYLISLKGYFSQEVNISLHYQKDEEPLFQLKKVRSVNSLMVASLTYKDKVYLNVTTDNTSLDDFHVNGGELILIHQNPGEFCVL

B1: 2D10 (human) (antibody, human IgG4 S228P, kappa, V domains shown)
VH: EVQLVESGGGLVQPGGSLRLSCAASGFTFSNYAMNWVRQAPGKGLEWVSTISGSGGATRYADSVKGRFTISRDNSRNTVYLQMNSLRVEDTAVFYCTKDRLIMATVRGPYYYGMDVWGQGTTVTVSS
VL: DIQMTQSPSSLSASVGDRVTITCRASQSISSYLNWYQQKPGKAPNLLIYAASSLQSGVPSRFSGSGSETDFTLTISSLQPEDFATYYCQQSHSVSFTFGPGTKVDIKR
- Primary T-cell Assay IC50 nM (recombinant OX40L induced IL2 release from primary human T cells): 0.81 nM

B2: 10A07 (human) (antibody, V domains shown)
VH: EVQLVESGGVLVQPGGSLRLSCAASGFTFSSYIMTWVRQAPGKGLEWVSGISGSGGGTYYADSMKGRFTISRDNSKNTLYLQMNSLRVEDTAVYYCAKDRLGPITLVRGGYYYGMDVWGQGTTVTVSS
VL: DIQMTQSPSSLSASVGDRVTITCRASQSISDYLNWYQQKPGKAPKFLIYAASSLQSGVPSRFSGSGSGTDFTLTVSSLQPEDFATYYCQQSYSTPRTFGQGTRVEIKR
- Primary T-cell Assay IC50 nM (recombinant OX40L induced IL2 release from primary human T cells): 0.83 nM
